Measured values published in the supplement of paper PMC9170038.

Tests used:
MS2 coat protein [1] = assay: apparent KD of MS2 coat protein, switch ON state; designed switch direction (-1 OFF switch, 1 ON switch): 1; higher = weaker reporter binding; conditions: FMN input: 0 or 200 uM; Eterna round: R93 (includes R88 designs)
Summary of the method: (§1)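 In 100 mM Tris-HCl pH 7.5 with 80 mM KCl and 4 mM MgCl2, and without or with constant ligand, SNAP-549-labelled MS2 coat protein was titrated in twofold steps from 0.7 or 1.5 nM to 3 µM. Per-step times went from 0.8–1.5 h down to 10–20 min. The RNA switches were transcribed on-chip from Illumina sequencing clusters, and apparent KD is the per-design median of normalised cluster binding-curve fits.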

MS2 coat protein [2] = assay: apparent KD of MS2 coat protein, switch OFF state (with FMN for OFF switches, without FMN for ON switches); designed switch direction (-1 OFF switch, 1 ON switch): 1; higher = weaker reporter binding; conditions: FMN input: 0 or 200 uM; Eterna round: R93 (includes R88 designs)
Summary of the method: as §1

## GAAAAACAUGAGGAUCACCCAUGUGAAAAUAUGGGAGGAUAUACGAAGUCGAAAGUCAAAGUAGAAGGCCUAAAAG [Garnet 32]
MS2 coat protein [1]
  apparent KD of MS2 coat protein: 43.6 nM
MS2 coat protein [2]
  apparent KD of MS2 coat protein: 155 nM

## GUAGAACAUGAGGAUCACCCAUGUGAAGACGCAUGAGGAUAUAUAAGUAAAUAGCAUAAGAUAGAAGGCAUGAUAA [JR_SS001_Sub1702]
MS2 coat protein [1]
  apparent KD of MS2 coat protein: 76 nM
MS2 coat protein [2]
  apparent KD of MS2 coat protein: 113 nM

## AUGUAUAGCCUCGAGGAUAUCCUGUCAUGCACAUGAGGAUCACCCAUGUAAGAGAGAGUUUAAUGGGAGAAGGCGAGUUCUCGGU [JR_SS002_Sub1706]
MS2 coat protein [1]
  apparent KD of MS2 coat protein: 33.4 nM
MS2 coat protein [2]
  apparent KD of MS2 coat protein: 66.6 nM

## GGAGCCGGCACUGAGGAUAUUCAUAUUAAAACAUGAGGAUCACCCAUGUAGGCCAGAAGGCCUUGGGAGAAGGCAGGUCGGCUCG [Arinin]
MS2 coat protein [1]
  apparent KD of MS2 coat protein: 16.5 nM
MS2 coat protein [2]
  apparent KD of MS2 coat protein: 363 nM

## AGAAAUAAAAGAGAGGAUAUUCAAAAGAAAACAUGAGGAUCACCCAUGUAAAAGAAAAUAAAUGGGAAGAAGGCUCAAAAUAAAG [Modifying JL's highscorer - Moving the G segment - Variant 2]
MS2 coat protein [1]
  apparent KD of MS2 coat protein: 24.8 nM
MS2 coat protein [2]
  apparent KD of MS2 coat protein: 26.2 nM

## GCGGUGCAGGUACAGGAUAUGUUGCUCGUAACAUGAGGAUCACCCAUGUACCUAUGAGAUUAAAUGCAGAAGGGUGCACACCACG [Oneratle]
MS2 coat protein [1]
  apparent KD of MS2 coat protein: 47.2 nM
MS2 coat protein [2]
  apparent KD of MS2 coat protein: 574 nM

## AUAAGAAAAACACAGGAUAUCCAAAAGAAAACAUGAGGAUCACCCAUGUAAAGAAAAUAAAAAUGGGAGAAGGGUGAAAAUAAUA [Mat - Same State 2 - JL mod - D32]
MS2 coat protein [1]
  apparent KD of MS2 coat protein: 28.1 nM
MS2 coat protein [2]
  apparent KD of MS2 coat protein: 62.2 nM

## GAAAAACAUGAGGAUCACCCAUGUGAAAAUAUGGGAGGAUAUACAAAGACGAAAGUCAAAGUAGAAGGCCUAAAAG [Mat - Same State 1 - Eli mod - D3]
MS2 coat protein [1]
  apparent KD of MS2 coat protein: 23.5 nM
MS2 coat protein [2]
  apparent KD of MS2 coat protein: 139 nM

## AAUAUACAUGAGGAUCACCCAUGUUAGGUGGGUCAAGGAUAUCAAUAUAAAUAAAAAACUUGAGAAGGUGAAUAAA [JR_SS001_Sub019]
MS2 coat protein [1]
  apparent KD of MS2 coat protein: 133 nM
MS2 coat protein [2]
  apparent KD of MS2 coat protein: 155 nM

## GCAGGGCCGUACUAGGAUAUGGGUGUAAAGACAUGAGGAUCACCCAUGUGAUGGCAAAACAAAGCUCAGAAGGAGUCGCGGCCCA [Cemavebi]
MS2 coat protein [1]
  apparent KD of MS2 coat protein: 20.7 nM
MS2 coat protein [2]
  apparent KD of MS2 coat protein: 129 nM

## AAAAAACAUGAGGAUCACCCAUGUGGGAAUAUGGAAGGAUAUACAAAGACGAAAGUCAAAGUAGAAGGUCUAAAAG [76%, Meechl 2]
MS2 coat protein [1]
  apparent KD of MS2 coat protein: 39.6 nM
MS2 coat protein [2]
  apparent KD of MS2 coat protein: 41.9 nM

## AAAAAACAUGAGGAUCACCCAUGUAGAAACAUGGGAGGAUAUACAAAGACGAAAGUCAAAGUAGAAGGCCUAAAAG [Mat - Same State 1 - Mod - D158]
MS2 coat protein [1]
  apparent KD of MS2 coat protein: 224 nM
MS2 coat protein [2]
  apparent KD of MS2 coat protein: 69.2 nM

## GGGAGGAAGAGAGAGGAUAUCCAAAGGAAAACAUGAGGAUCACCCAUGUAAAAGGUAGGAAAUUGGGAGAAGGCUCAAGAGAAUG [salish99-ss2-055]
MS2 coat protein [1]
  apparent KD of MS2 coat protein: 24.1 nM
MS2 coat protein [2]
  apparent KD of MS2 coat protein: 28.3 nM

## AAGAAACAUGAGGAUCACCCAUGUAAGAUAAACACAGGAUAUGCGAAAAUAAACAAAUAAGCAGAAGGGUGAAGAA [Mat - Same State 1 - Tesla mod - 65]
MS2 coat protein [1]
  apparent KD of MS2 coat protein: 19.5 nM
MS2 coat protein [2]
  apparent KD of MS2 coat protein: 28.1 nM

## AGAAAUAAAAGAGAGGAUAUCCAAAAGAAAACAUGAGGAUCACCCAUGUAAAAGAAAAUAAAAUGGGAGAAGGCUCACAUAAAGA [Topaz 34]
MS2 coat protein [1]
  apparent KD of MS2 coat protein: 21.1 nM
MS2 coat protein [2]
  apparent KD of MS2 coat protein: 37.4 nM

## GACAAACAUGAGGAUCACCCAUGUAGAAAUAUGGGAGGAUAUACACAGACGAAAGUCAAAGUAGAAGGCCUACAAG [77%, Mat - Mod of Eli - With 3 more C's]
MS2 coat protein [1]
  apparent KD of MS2 coat protein: 25.9 nM
MS2 coat protein [2]
  apparent KD of MS2 coat protein: 103 nM

## GAGGACAUAGUAUAGGAUAUAUGAAUAGUUACAUGAGGAUCACCCAUGUGCAUUUAUAUGCGAACAUAGAAGGGUGGUAGUUAUC [SameState2 Malc#31]
MS2 coat protein [1]
  apparent KD of MS2 coat protein: 122 nM
MS2 coat protein [2]
  apparent KD of MS2 coat protein: 75.1 nM

## AAAGACAUGGUGUAGGAUAUAUUAAUAGUCACAUGAGGAUCACCCAUGUUCAUAUAUAUGAACGAGUAGAAGGACGAUGAAAAAA [SameState2 Malc#3]
MS2 coat protein [1]
  apparent KD of MS2 coat protein: 497 nM
MS2 coat protein [2]
  apparent KD of MS2 coat protein: 205 nM

## AGGAAACAUGAGGAUCACCCAUGUAAAAAUAUGGGAGGAUAUACGAAAAAAAAAAAAAAAGUAGAAGGCCUAAAAG [Garnet 10]
MS2 coat protein [1]
  apparent KD of MS2 coat protein: 101 nM
MS2 coat protein [2]
  apparent KD of MS2 coat protein: 231 nM

## UGCAGGAAGAGAGAGGAUAUCCAAAGGAAAACAUGAGGAUCACCCAUGUAAAAGGUAGGAAAUUGGGAGAAGGCUCAAGAGAGAG [salish99-ss2-098]
MS2 coat protein [1]
  apparent KD of MS2 coat protein: 33.1 nM
MS2 coat protein [2]
  apparent KD of MS2 coat protein: 28.3 nM

## AAUAUACAUGAGGAUCACCCAUGUUAGGUGGGACUAGGAUAUCAAAAUAAAUAAUGAACAUGAGAAGGAGUAUCAA [JR_SS001_Sub402]
MS2 coat protein [1]
  apparent KD of MS2 coat protein: 130 nM
MS2 coat protein [2]
  apparent KD of MS2 coat protein: 190 nM

## AAAAGACAUGAGGAUCACCCAUGUAAAGACAUAGGAGGAUAUGUCAUGAAAAAAGACUUGACAGAAGGCCUUUGUC [SS1 - 50]
MS2 coat protein [1]
  apparent KD of MS2 coat protein: 20.4 nM
MS2 coat protein [2]
  apparent KD of MS2 coat protein: 20.4 nM

## CCCAUACAUGAGGAUCACCCAUGUUUUAUUAACAGAGGAUAUAUAGGUGAAACAAACAACAUAGAAGGCUGCCCAA [Default title]
MS2 coat protein [1]
  apparent KD of MS2 coat protein: 34.2 nM
MS2 coat protein [2]
  apparent KD of MS2 coat protein: 53.2 nM

## GGUACAGCUAGUUAGGAUAUCAGGUGUAAGACAUGAGGAUCACCCAUGUCCUAAGAACAGGUAACUGAGAAGGAACAGGGCGUCC [JR_SS002_Sub415]
MS2 coat protein [1]
  apparent KD of MS2 coat protein: 27.3 nM
MS2 coat protein [2]
  apparent KD of MS2 coat protein: 90 nM

## CACAGAGUGGCGUAGGAUAUGUACAUGAGUACAUGAGGAUCACCCAUGUGGGCGUGAAAUUACGAGCAGAAGGGCGUCGCCUGUG [Edradi]
MS2 coat protein [1]
  apparent KD of MS2 coat protein: 24.4 nM
MS2 coat protein [2]
  apparent KD of MS2 coat protein: 135 nM

## AAAAGACAUGAGGAUCACCCAUGUAAAAACGUAGGAGGAUAUGUAUGGAAACCAGACUGUACAGAAGGCCUUUGUC [SS1 - 73]
MS2 coat protein [1]
  apparent KD of MS2 coat protein: 20 nM
MS2 coat protein [2]
  apparent KD of MS2 coat protein: 19.4 nM

## AUAAAACAUGAGGAUCACCCAUGUAGAAAUAUGGGAGGAUAUACUAGAUCGAAAGAUCUAGUAGAAGGCCUCAAAG [JL Mod of Eli 2]
MS2 coat protein [1]
  apparent KD of MS2 coat protein: 58.8 nM
MS2 coat protein [2]
  apparent KD of MS2 coat protein: 58.9 nM

## AAAAAACAUGAGGAUCACCCAUGUCAAAAGACAUGAGGAUAUGUGUGGAAACCAUACUAUACAGAAGGCAUAAAAA [SS1 - 1008]
MS2 coat protein [1]
  apparent KD of MS2 coat protein: 105 nM
MS2 coat protein [2]
  apparent KD of MS2 coat protein: 159 nM

## AAUAAAAAUAGUUAGGAUAUGAGAACUAGGACAUGAGGAUCACCCAUGUAACUAGAACAAGUAAAUCAGAAGGGACAGGGUGAAA [JR_SS002_Sub203]
MS2 coat protein [1]
  apparent KD of MS2 coat protein: 41.9 nM
MS2 coat protein [2]
  apparent KD of MS2 coat protein: 19 nM

## AAAAGACAUGAGGAUCACCCAUGUCAAAACGUAGGAGGAUAUGUCUUGAAAAAAGACUUGACAGAAGGCCUGUGUC [SS1 - 54]
MS2 coat protein [1]
  apparent KD of MS2 coat protein: 15.1 nM
MS2 coat protein [2]
  apparent KD of MS2 coat protein: 17 nM

## AAGAAACAUGAGGAUCACCCAUGUAGAAAUAUGGGAGGAUAUACGAAGACGAAAGUCAAAGUAGAAGGCCUAAAGA [Mat - Same State 1 - Eli mod - D106]
MS2 coat protein [1]
  apparent KD of MS2 coat protein: 20.3 nM
MS2 coat protein [2]
  apparent KD of MS2 coat protein: 61.5 nM

## UGGAGACAUGAGGAUCACCCAUGUGAGAAGAGGCGAGGAUAUCGAAAAAAAAAAAAAAAACGAGAAGGCGCGAGAU [salish99-SS1-008]
MS2 coat protein [1]
  apparent KD of MS2 coat protein: 25.9 nM
MS2 coat protein [2]
  apparent KD of MS2 coat protein: 22.1 nM

## AAGAAACAUGAGGAUCACCCAUGUAAGAUAAACACAGGAUAUGCAAAAGAAAGAAAGAAAGCAGAAGGGUGAAGAA [Mat - Same State 1 - Tesla mod - 50]
MS2 coat protein [1]
  apparent KD of MS2 coat protein: 15.7 nM
MS2 coat protein [2]
  apparent KD of MS2 coat protein: 42.3 nM
